Target: myc-tagged SynDIG4 (wild type), Q6MG82
Experiment: co-immunoprecipitation (IP: HA, blot: myc), quantified
Details: chain shown with the change; HEK293T cells; fourth bar chart of panel D (µ2 FLD vs µ2 ALS); parent: est. 100; read off a plot

Sequence of myc-tagged SynDIG4 (wild type), Q6MG82 (Q6MG82 whole entry): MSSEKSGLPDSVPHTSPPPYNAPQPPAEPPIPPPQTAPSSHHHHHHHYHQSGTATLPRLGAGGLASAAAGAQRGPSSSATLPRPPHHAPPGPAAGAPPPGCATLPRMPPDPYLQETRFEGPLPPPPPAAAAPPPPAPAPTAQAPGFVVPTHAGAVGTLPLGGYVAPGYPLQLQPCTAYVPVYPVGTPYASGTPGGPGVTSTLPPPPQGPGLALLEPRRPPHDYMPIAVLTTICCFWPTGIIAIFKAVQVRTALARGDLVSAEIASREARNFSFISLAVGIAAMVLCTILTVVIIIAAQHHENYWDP

B1: HA-tagged μ2 AP subunit, Q96CW1 FLD→ALS (protein)
chain: MIGGLFIYNHKGEVLISRVYRDDIGRNAVDAFRVNVIHARQQVRSPVTNIARTSFFHVKRSNIWLAAVTKQNVNAAMVFEFLYKMCDVMAAYFGKISEENIKNNFVLIYELLDEILDFGYPQNSETGALKTFITQQGIKSQHQTKEEQSQITSQVTGQIGWRREGIKYRRNELALSVLESVNLLMSPQGQVLSAHVSGRVVMKSYLSGMPECKFGMNDKIVIEKQGKGTADETSKSGKQSIAIDDCTFHQCVRLSKFDSERSISFIPPDGEFELMRYRTTKDIILPFRVIPLVREVGRTKLEVKVVIKSNFKPSLLAQKIEVRIPTPLNTSGVQVICMKGKAKYKASENAIVWKIKRMAGMKESQISAEIELLPTNDKKKWARPPISMNFEVPFAPSGLKVRYLKVFEPKLNYSDHDVIKWVRYIGRSGIYETRC
- percent of parent: 50 % µ2
